# B1: Transcriptional coactivator YAP1 (Homo sapiens), P46937-3 (parent)
# chain: MDPGQQPPPQPAPQGQGQPPSQPPQGQGPPSGPGQPAPAATQAAPQAPPAGHQIVHVRGDSETDLEALFNAVMNPKTANVPQTVPMRLRKLPDSFFKPPEPKSHSRQASTDAGTAGALTPQHVRAHSSPASLQLGAVSPGTLTPTGVVSGPAATPTAQHLRQSSFEIPDDVPLPAGWEMAKTSSGQRYFLNHIDQTTTWQDPRKAMLSQMNVTAPTSPPVQQNMMNSASAMNQRISQSAPVKQPPPLAPQSPQGGVMGGSNSNQQQQMRLQQLQMEKERLRLKQQELLRQVRPQELALRSQLPTLEQDGGTQNPVSSPGMSQELRTMTTNSSDPFLNSGTYHSRDESTDSGLSMSSYSVPRTPDDFLNSVDEMDTGDTINQSTLPSQQNRFPDYLEAIPGTNVDLGTLEGDGMNIEGEELMPSLQEALSSDILNDMESVLAATKLDKESFLTWL
# Variants of: B1
# Conditions: with ctnb1_human CTNNB1, P35222
# Chain of ctnb1_human CTNNB1, P35222 (P35222 whole entry): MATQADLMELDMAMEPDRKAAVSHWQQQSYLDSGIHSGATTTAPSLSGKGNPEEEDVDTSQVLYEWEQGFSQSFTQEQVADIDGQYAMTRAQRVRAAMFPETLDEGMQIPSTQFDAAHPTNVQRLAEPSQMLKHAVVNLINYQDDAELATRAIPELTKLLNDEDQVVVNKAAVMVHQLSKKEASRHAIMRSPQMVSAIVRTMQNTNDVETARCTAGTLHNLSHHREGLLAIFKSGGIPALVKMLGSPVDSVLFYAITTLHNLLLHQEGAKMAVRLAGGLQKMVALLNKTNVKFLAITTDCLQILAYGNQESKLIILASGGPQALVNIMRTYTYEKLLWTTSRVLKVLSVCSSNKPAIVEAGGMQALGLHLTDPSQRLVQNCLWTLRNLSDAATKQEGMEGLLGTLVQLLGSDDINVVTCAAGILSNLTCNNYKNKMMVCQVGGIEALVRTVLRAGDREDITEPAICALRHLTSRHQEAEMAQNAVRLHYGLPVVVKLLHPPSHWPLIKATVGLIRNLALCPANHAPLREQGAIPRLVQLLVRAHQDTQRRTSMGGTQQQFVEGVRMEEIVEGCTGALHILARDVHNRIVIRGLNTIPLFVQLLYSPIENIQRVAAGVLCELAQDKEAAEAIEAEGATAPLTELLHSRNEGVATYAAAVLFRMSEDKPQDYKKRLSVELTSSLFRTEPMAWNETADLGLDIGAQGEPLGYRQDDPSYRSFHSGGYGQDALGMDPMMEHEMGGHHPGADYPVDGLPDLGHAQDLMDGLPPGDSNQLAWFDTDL
row,Variant,effect of a mutation on the interaction
1,Y357F,increasing interaction strength

# From IntAct's records for PubMed 23245941
